{"source": "paper PMC3691600", "about": "“Conversion of fatty aldehydes into alk (a/e)nes by in vitro reconstituted cyanobacterial aldehyde-deformylating oxygenase with the cognate electron transfer system” (Biotechnology for Biofuels, 2013)", "target": "Aldehyde-deformylating oxygenase (Synpcc7942_1593) from Synechococcus elongatus PCC7942 (Synechococcus elongatus PCC7942) (UniProt Q54764)", "sequence (Q54764 whole entry)": "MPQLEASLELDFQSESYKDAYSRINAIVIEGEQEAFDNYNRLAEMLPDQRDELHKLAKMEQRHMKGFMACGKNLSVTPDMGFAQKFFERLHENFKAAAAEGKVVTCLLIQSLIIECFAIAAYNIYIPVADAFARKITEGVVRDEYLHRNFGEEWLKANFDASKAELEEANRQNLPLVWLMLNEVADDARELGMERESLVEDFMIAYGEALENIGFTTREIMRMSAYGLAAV", "data": [{"substance": "Spinach ferredoxin (from UniProt P00221 51-147) (natural protein)", "values": [{"measurement": "Yield of n-pentadecane by ADO 1593 with Fd (spinach) + FNR (PCC7942) + NADPH", "result": 13.9, "unit": "µM"}, {"measurement": "Yield of n-pentadecane by ADO 1593 with Fd (spinach) + FNR (spinach) + NADPH", "result": 15.7, "unit": "µM"}]}]}
